Laboratory results taken from the nanobody polyreactivity screen of Harvey et al. (2022).

Assay: yeast display, Sf9 membrane polyspecificity reagent, FACS + sequencing; frameworks hold sequencing errors
How it was run: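 Galactose induction of a Saccharomyces cerevisiae BJ5465 synthetic nanobody display library ran 36–48 hours. The cells were then stained for 1 hour at 4 °C with 10% biotinylated, detergent-solubilized Sf9 membrane reagent, pulled down on streptavidin microbeads and FACS-sorted into low and high (top ~1%) gates on expression and reagent-binding fluorescence. Labels for polyreactivity follow the gate of origin.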

Row | Sequence | polyreactivity (PSR sort gate)
1 | QVQLVESGGGLVQAGGSLRLSCAASGSTSQINAMGWYRQAPGKERELVAAITWSTGTTYYADSVKGRFTISRDNAKNTVYLQMTSLKPEDTAVYYCAAERAILSSDKQSLWRFDYWGQGTQVTVSS | low polyreactivity
2 | QVQLVESGGGLVQAGGSLRLSCAASGSIFPSNAMGWYRQAPGKERELVAAISWSGDITYYADSVKGRFTISRDNAKNTVYLQMNSLKPEDTAVYYCAADTPIAGYWYNYWGQGTQVTVSS | low polyreactivity
3 | QVQLVESGGGLVQAGGSLRLSCAASGSIIWRNAMGWYSQAPGKERELVAAISYSGGSTYYADSVKGRFTISRDNAKNTVDLQMNSLKPEDTAVYYCAADYTEVLEYDYWGQGTQVTVSS | low polyreactivity
4 | QVQLVESGGGLVQAGGSLRLSCAASGRIYDYMGWYRQAPGKERELVAAITSSGVSTYYADSVKGRFTISRDNAKNTVYLQMNSLKPEDTAVYYCAAERVYIVWFTHEIFNYWGQGTQVTVSS | high polyreactivity
5 | QVQLVESGGRLVQAGGSLLLSCAASGSTIGYYDMGWYRQAPGKERELVASITKSGGTTRYADSVKGRFTISRDNAKNTVYLQMNSLKPEDTAVYYCNADRSLLYSRKIEYDYWGQGTQVTVRS | low polyreactivity
6 | QVQLVESGGGLVQAGGSLRLSCAAYGSIFSTYAMGWYRQAPGKERELVAAISRSGGSTYYADSVKGRFTISRDNAKNTVYLQMNSLKPEDTAVYYCAKVGRRQRYDYWGQGTQVTVSS | high polyreactivity
7 | QVQLVESGGGLVQAGGSLRLSCAASGYTFQWYDMGWYRQAPGKERELVASISWRGGSTYYADSVKGRFSISRDNATITVSLQMNSLKPEDTAVYYCAASLWPDYEYDYWGQGTQVTVSS | low polyreactivity
8 | QVQLVESGGGLVQAGGSLRLSCAASGYIFLVYAMGWYRQAPGKERELVAAIDWSDTHTYYADSVKGRFTISRDNAKNTVYLHMNSLKPEDSAVYYCNADDYQYKTWYHLDYWGQGTQVTVSS | low polyreactivity
9 | QVQLVESGGGLVQAGGSLRLSCAASGRIFSTYAMGWYRQAPGKERELVAAINSIGGRTYYADSVKGRFTISRDNAKNTVYLQMNSMKPEDTAVYYCAASRFRTGQEDDYWGQGTQVTVSS | high polyreactivity
10 | QVQLVESGGGLVQAGGSLRLSCAASGFTFRVYAMGWYRQAPGKERELVAAISKSGGSTYYADSVKGRFTISRDNAKNTVYLQMNSLKPEDTAVYYCAKVSQVRGFYYWGQGTQVTVSS | high polyreactivity
11 | QVQLVESGGGLVQAGGSLRLSCAASGRIFGRNAMGWYRQAPGKERELVAGISGRGGITYYADSVKGRFTISRDNAKNTVYLQMNSLKPEDTAVYYCAATGGDYYDFSYWGQGTQVTVSS | high polyreactivity
12 | QVQLVESGGGLVQAGGSLRLSCAASGSILYPNAMGWYRQAPGKERELVAAISSSGGRTYYADSVKGRFTISRDNAKNTVYLQMNSLKPEDTAVYYCATVSIAGPRYDYWGQGTQVTVSS | high polyreactivity
13 | QVQLVESGGGLDQAGGSLRLSCAASGNIFYRYAMGWYRQAPWKERELVAAISGNSGNTYYADSVKGRFTISRDNAKNTVYLQMNSLKPEDTAVYYCAAERRAFGHYSWGQGTQVTVSS | high polyreactivity
14 | QVQLVESGGGLVQAGGSLRLSCAASGFIFRYNAMGWYRQAPGKERELVAAISWNGGRTYYADSVKGRFTISRDNAKNTVYLQMNSLKPEDTAVYYCAAELSSYFFSAGYDYWGQGTQVTVSS | high polyreactivity
15 | QVQLVESGGGLVQAGGSLRLSCAASGRIFRYYAMGWYRQAPGKERELVAAISSGGRTYYADSVKGRFTISRDNAKNTVYLQMNSLKPEDTAVYYCNAYAYHAGGDYWGQGTQVTVSS | high polyreactivity
16 | QVQLVESGGGLVQAGGSLRLSCAASGSTIYPNAMGWYRQAPGKERELVARISRTGGSTYADSVKGRFTISRDNAKNTVYLQMNSLIPEDSAVYYCARSYASFSWLRTKEPYEYWGQGTQVTVSS | low polyreactivity
17 | QVQLVESGGGLVQAGGSLRLSCAASGSTFGYYAMGWYRQAPGKERELVATITWSGGSTNYADSVKGRFTISRDNAKNTVYLQMNSLKPEDTAVYYCAADLKYWYFGLAFIEVDYWGQGTQVTVSS | low polyreactivity
18 | QVQLVESGGGLVQAGGSLRLSCAASGNTFAFNAMVWYRQAPGKEREFVAAISYSGVSTYYADSEKGRFTISRDNAKNTVYLQMNSLKPEDTAVYYCAARYGWYKYWYDYWGQGTQGTVSS | high polyreactivity
19 | QVQLVESGGGLVQAGGSRRLSCAASGSIFPVYAMGWYRQAPGKERELVASISTGGSTYYADSVKGRFTISRDNAKNTVYFQLNSLKPEDTAVYYCAATGWAYGYGYGYWGQGTQVTESS | low polyreactivity
20 | QVQLVESVGGLVQAGGSLRLSCAASGFTFYKNAMGWYRQATGKERELVAPITKSGGRTYYADSVKGRFTISRDYAKNTVYLQMNCLKPEDNAVYYCAADISPFGRQPCVIRYSWGQGTQVTVSS | high polyreactivity
21 | QVQLVESGGGLVQAGGSLRLSCAASGNIYDVYAMGWYRQAPGKERELVADIDRGGTTYADSVKGRFTISRDNAKNTVYLQMNSLKPEATAVYYCAADYVQGFGFYYQWHSDYWGQGTQVTVSS | low polyreactivity
22 | QVQLVESGGGLFQAGRSLRLICAASGRIFNQYPMGWSRQAPGKETELVAAIRRSSDSTYYADSVKGRFTISRDNAKNTVYLQMNSLTPEDSAVYYCATDGYRRWVWMEYWGQGTQVTVSS | low polyreactivity

Row | Sequence | polyreactivity (PSR sort gate)
23 | QVQLVESGGGLVQAGGSLRLSCAASGRTFSHYAMGSYRQAPGKEREFVADITRSGGSTYYADSVKGRFTISRDNAKNTVYLQMNSLKPEDTAVYYCNAESYFEIYDYWGQGTQVTVSS | high polyreactivity
24 | QVQLVESGGGLVQARGSLRLSCAASGRIFYFYAMGWYRQAPGKERELVAAITESTSSTYYADSVKGRFTISRDNAKNTVYLQMNSLKPEDTAVYYCAARVSQWLPYGGSSRYYYWGQGTQVTVSS | high polyreactivity
25 | QVQVVESGGGLVQAGGSLRLSCAASGLISWLYVMGWYRQAPGKERELVAAIRYSGGRTYYADSVKGRFTISRDNAKNTDYLQMHSLKPEDTAVYYCNALPWALYDSTSIYYYWGQGTQVTVSS | low polyreactivity
26 | QVQLEESGGGLVQAGGTLRLSCAASGRIFGWYAMGWYRQPPGKERELVAAISSGGRTNYADSVKGRFTISRDNAKNTVYLQMNSLKPEDTAVYYCNARSTYLPYKFGYDYWGQGTQVTVSS | low polyreactivity
27 | QVQLVESGGGLVQAGGSLRLSCAASGSTFTYYTMGWYRQAPGKERELVAAITSGTSTNYADSVKGRFTISRDNAKNTVYLQMNSLKPEDTAVYYEYDYWGQGTQVTVSS | low polyreactivity
28 | QDQLVESGGGLVHAGGSLRLSCAASGRTFFVYAMGWYRHAPGKEREMVANINQGGGSTSYADSVKGRFTISRDNAKNNVYLQMNSLKPEDTAVYYCNADHYGIGYDPVPLGFVGYDYWGQGTQVTVSS | low polyreactivity
29 | QVQLVESVGGIVQAGGSLRLSCAASGITLYWYAMGWYRQAPGKERELVAAISRRGGTTYYADSVKGRFTISRDNAKINVFLQMHSLNPEDTAVYYCAKAPDTQTSWSRQEGTYWGQGTQVTVSS | low polyreactivity
30 | QVQLVESGGGLVQAGGSLRLSCAASGSIFEPYTMGWYRQAPGKERELVAAITGSGGSTFYADSVKGRFTISRDNAKNTVYLQMNSLKPEDTAVYYCNAYAYPYTDVDYWGQGTQVTVSS | low polyreactivity
31 | QVQLVESGGGLVQAGGSLRLSCAASGTTFSRYAMGWYRQAPGKEREFVAAISRRAGGTYYADSVKGRFTISRDNAKNTVYLQMNSLKPEDTAVYYCAKVLPRDYIGRATYDYWGQGTQVTVSS | high polyreactivity
32 | QVQLVESGGGLVQAGGSLRLSCAASGGIFKRNTMGWYRQAPGKERELVAGISWTGGRTYYADSVKGRFTISRDNAKNTVYLHMNSLKPEDTAVYYCAAKPLQGVRRVEYWGQGTQVTVSS | high polyreactivity
33 | QVQLVESGGGLVQAGGSLRLSCAASGSTFSGYAMGWYRQAPGKEREFVATISISGGSTYYADSVKGRFTISRDNAKNTVYLQMNSLKPEDTAVYYCNADYYFSWGSIVDYWGQGTQVTVSS | low polyreactivity
34 | QVQLVESGGGLVQAGGSLRLSCAASGSIFLKYAMGWYRQAPGKERELVATISRGGITYYADSVKGRFTISRDNAKNTVYLQMNSLKPEDTAVYYCATTGGRQYGYWGQGTQVTVSS | high polyreactivity
35 | QVQLVESGGGLVQSGGSLRLSCAASGFIFRWYAMGWYRQAPGKERELVASIDWSGTRTNYADSVKGRFTISRDNAKNTVYLQMNSLKPEDTAVYYCNAVPTSLGETDYDYWGQGTQVTVSS | low polyreactivity
36 | QVQLVESGGGLVQAGGSLRLSCAASGSTSGPYAMGWYRTAPGKERELVATISWIGDRTYYADSVKGRFTISRDNAKNTIYLQMNSLKPEDTAVYYCNDDYRGYANLEGDYWGQGTQVTVSS | low polyreactivity
37 | QVQLVESGGGLVPAGGSLRLSCAASGSTFKIYAMGWYRQAPGKERELVARITSGGSTNYADSVKGRFTISRDNAKNTVYLQMNSLKPDDTAVYYCAARRWSYSTRGQRSTNLDYWGQGTQVTVSS | high polyreactivity
38 | QVQLVESGGGLVQAGGSLRLSCAASGSSFPYNTMGWYRQAPGKERELVAAISSGASTNYADSVKGRFTISRDNAKNTVYLQMNSLKPEDTAVYYCAAKYNANWDFDYWGQGTQVTVSS | low polyreactivity
39 | QVQLVESGGGLVQAGGSLRLSCAASGLIFYLYAMGWYRQAPGKERELVAAITSGGGSTYYADSVKGRFTISRDNAKNTVYLQMNSLKPEDTAVYYCAARLVLYITVVYEDDYWGQGTQVTVSS | low polyreactivity
40 | QVQLVESGGGLVQAGGSLRLSCAASGRTFARYAMGWYRQAPGKERELVAAITRRGGSTYYADSVKGRFTISRDNAQNTVYLQMNSLKPEDTAVYYCAVPWYTRESGAYDYWGQGTQVTVSS | high polyreactivity
41 | QVQLVESGGGVDQAGVSLRLSCAASGIICFGYAMGWYRQAPGNERELVARITRSGASTYYADSVKGRFTISRDNAKKTVYLQMYSLTPEDTPVSYCAADYRKRYDYWGQGTQVTVSS | low polyreactivity
42 | QVQLQERGGGLVQVGGSQRLSCAASGNIFYNYAMGWYRHAQGKEREFDATINHGTSINYADSVKGRFTISRDNAKNSVYLQMNSLKPEDTAVYYCAADLSWTDNLFYWGQGTQVTVSS | low polyreactivity
43 | QVQLVESGGGLVQAGGSLRLSCAASGFIIDVYAMGWYRHAPGKERELVAAISRSGGSTYYADSVKGRFTISRDNAKNSVYLQMNSLKPEDTAVYYCNAPGVTRAYLVGYDYWGQGSQVTVSS | low polyreactivity
